Numbering of substitutions follows the chain as printed.
What was measured:
[1] = molecular target: T1, Arabidopsis thaliana mitochondrial pyruvate dehydrogenase E1α subunit (AtPDC E1α), wild type, H6-tagged (Arabidopsis thaliana, UniProt P52901 18-389); experiment: pull-down; H6-E1α and FLAG-E1β coexpressed in E. coli; soluble fraction on a HiTrap chelating column charged with NiSO4 (immobilized metal affinity chromatography); E1α detected with monoclonal anti-E1α, E1β with anti-FLAG by immunoblot; conditions: partners not purified
T1 sequence (looked up): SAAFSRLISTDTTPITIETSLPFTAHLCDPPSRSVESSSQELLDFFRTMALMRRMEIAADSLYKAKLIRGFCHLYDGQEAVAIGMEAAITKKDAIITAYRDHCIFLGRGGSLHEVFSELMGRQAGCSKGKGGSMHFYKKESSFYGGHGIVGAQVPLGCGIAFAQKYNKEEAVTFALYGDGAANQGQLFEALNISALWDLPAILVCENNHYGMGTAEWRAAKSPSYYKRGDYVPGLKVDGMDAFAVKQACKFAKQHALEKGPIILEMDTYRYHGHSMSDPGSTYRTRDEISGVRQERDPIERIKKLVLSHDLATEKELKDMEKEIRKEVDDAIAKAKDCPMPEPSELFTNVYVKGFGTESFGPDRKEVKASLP

[2] = molecular target: T2, AtPDC E1α D295L mutant, H6-tagged (Arabidopsis thaliana, UniProt P52901 18-389, D295L); experiment: SEC; purified recombinant AtPDC E1 on a Superose 12 column in 50 mM TES-NaOH, pH 7.4, 50 mM NaCl, 0.1 mM TPP, 0.2 mM MgCl2; fractions analysed by SDS-PAGE and immunoblotting; conditions: both partners purified
T2 sequence (looked up): T1 sequence (looked up) with D278L

[3] = molecular target: T3, AtPDC E1α G297S mutant, H6-tagged (Arabidopsis thaliana, UniProt P52901 18-389, G297S); experiment: as above; conditions: both partners purified
T3 sequence (looked up): T1 sequence (looked up) with G280S

[4] = molecular target: T4, AtPDC E1α D295N mutant, H6-tagged (Arabidopsis thaliana, UniProt P52901 18-389, D295N); experiment: as above; conditions: both partners purified
T4 sequence (looked up): T1 sequence (looked up) with D278N

[5] = molecular target: T5, AtPDC E1α D295A mutant, H6-tagged (Arabidopsis thaliana, UniProt P52901 18-389, D295A); experiment: as above; conditions: both partners purified
T5 sequence (looked up): T1 sequence (looked up) with D278A

binding result [1]: binds | binding result [2]: binds | binding result [3]: binds | binding result [4]: binds | binding result [5]: binds
B1: Arabidopsis thaliana mitochondrial pyruvate dehydrogenase E1β subunit (AtPDC E1β), FLAG-tagged (enzyme, UniProt Q38799 30-363, looked up)
chain: AAGAKEMTVRDALNSAIDEEMSADPKVFVMGEEVGQYQGAYKITKGLLEKYGPERVYDTPITEAGFTGIGVGAAYAGLKPVVEFMTFNFSMQAIDHIINSAAKSNYMSAGQINVPIVFRGPNGAAAGVGAQHSQCYAAWYASVPGLKVLAPYSAEDARGLLKAAIRDPDPVVFLENELLYGESFPISEEALDSSFCLPIGKAKIEREGKDVTIVTFSKMVGFALKAAEKLAEEGISAEVINLRSIRPLDRATINASVRKTSRLVTVEEGFPQHGVCAEICASVVEESFSYLDAPVERIAGADVPMPYAANLERLALPQIEDIVRASKRACYRSK

— article PMC3034952 (Enzyme Research, 2011)
